# According to publication PMC5028754, “Structural studies of the yeast DNA damage-inducible protein Ddi1 reveal domain architecture of this eukaryotic protein family” (Scientific Reports, 2016):
# Columns and labels:
# [1] = molecular target: T1, bovine ubiquitin (bovine, UniProt P0CG53 1-76); assay: ITC; ubiquitin or K48-Ub2 injected from the syringe into the Ddi1 construct in the sample cell; 50 mM HEPES, pH 7.4, 150 mM NaCl, 25 °C; VP-ITC; one-site model varying N, Kd and ΔH; full-length Ddi1 with ubiquitin also fitted to a two-sites model with N fixed to 1.0; conditions: both partners purified
# T1 construct: ubiquitin, bovine (cut product of the ubiquitin precursors); source: bought: Sigma, cat. no; U6253
# [2] = molecular target: the molecule itself; assay: crystal structure; Ddi1 RVP 185-325, 1.8 Å; crystallized in 0.1 M phosphate-citrate, pH 4.2, 0.4 M NaCl, 20% PEG 8000; two chains in the asymmetric unit
Binder,Kd [1],stoichiometry N [2]
"full-length yeast Ddi1 (natural protein, S. cerevisiae, UniProt P40087 1-428, looked up, Ddi1 of Saccharomyces cerevisiae, full length, cloned into pET16b; ITC concentration calculated to monomer; also called Ddi1 FL; DNA damage-inducible protein Ddi1) MDLTISNELTGEIYGPIEVSEDMALTDLIALLQADCGFDKTKHDLYYNMDILDSNRTQSLKELGLKTDDLLLIRGKISNSIQTDAATLSDEAFIEQFRQELLNNQMLRSQLILQIPGLNDLVNDPLLFRERLGPLILQRRYGGYNTAMNPFGIPQDEYTRLMANPDDPDNKKRIAELLDQQAIDEQLRNAIEYTPEMFTQVPMLYINIEINNYPVKAFVDTGAQTTIMSTRLAKKTGLSRMIDKRFIGEARGVGTGKIIGRIHQAQVKIETQYIPCSFTVLDTDIDVLIGLDMLKRHLACVDLKENVLRIAEVETSFLSEAEIPKSFQEGLPAPTSVTTSSDKPLTPTKTSSTLPPQPGAVPALAPRTGMGPTPTGRSTAGATTATGRTFPEQTIKQLMDLGFPRDAVVKALKQTNGNAEFAASLLFQ",320 µM,–
"Ddi1 RVP (residues 185-325) (domain or fragment, S. cerevisiae, UniProt P40087 185-325, looked up, MALDI-TOF 16,320 Da (predicted 16,313 Da); also called RVP domain; Ddi1 retroviral protease-like domain; source: E. coli BL21(DE3), purified (glutathione-sepharose, 3C cleavage, gel filtration); not shown: GST, N-terminal, cleaved) EQLRNAIEYTPEMFTQVPMLYINIEINNYPVKAFVDTGAQTTIMSTRLAKKTGLSRMIDKRFIGEARGVGTGKIIGRIHQAQVKIETQYIPCSFTVLDTDIDVLIGLDMLKRHLACVDLKENVLRIAEVETSFLSEAEIPK",–,2
"Ddi1 UBL-RVP (1-325) (domain or fragment, S. cerevisiae, UniProt P40087 1-325, looked up, Contains the RVP domain; also called UBL-RVP construct (without the UBA)) MDLTISNELTGEIYGPIEVSEDMALTDLIALLQADCGFDKTKHDLYYNMDILDSNRTQSLKELGLKTDDLLLIRGKISNSIQTDAATLSDEAFIEQFRQELLNNQMLRSQLILQIPGLNDLVNDPLLFRERLGPLILQRRYGGYNTAMNPFGIPQDEYTRLMANPDDPDNKKRIAELLDQQAIDEQLRNAIEYTPEMFTQVPMLYINIEINNYPVKAFVDTGAQTTIMSTRLAKKTGLSRMIDKRFIGEARGVGTGKIIGRIHQAQVKIETQYIPCSFTVLDTDIDVLIGLDMLKRHLACVDLKENVLRIAEVETSFLSEAEIPK",310 µM,–
"Ddi1 RVP-UBA (180-428) (domain or fragment, S. cerevisiae, UniProt P40087 180-428, looked up, Ddi1 of Saccharomyces cerevisiae, residues 180-428 (RVP to UBA, lacks the UBL), cloned into pET16b; Contains the RVP domain; also called RVP-UBA construct (without the UBL)) QQAIDEQLRNAIEYTPEMFTQVPMLYINIEINNYPVKAFVDTGAQTTIMSTRLAKKTGLSRMIDKRFIGEARGVGTGKIIGRIHQAQVKIETQYIPCSFTVLDTDIDVLIGLDMLKRHLACVDLKENVLRIAEVETSFLSEAEIPKSFQEGLPAPTSVTTSSDKPLTPTKTSSTLPPQPGAVPALAPRTGMGPTPTGRSTAGATTATGRTFPEQTIKQLMDLGFPRDAVVKALKQTNGNAEFAASLLFQ",43 µM,–
